Experimental data taken from IntAct's records for PubMed 30126976.

B1: Olfactory receptor 5F1 (Homo sapiens), O95221 (parent)
chain: MTRKNYTSLTEFVLLGLADTLELQIILFLFFLVIYTLTVLGNLGMILLIRIDSQLHTPMYFFLANLSFVDVCNSTTITPKMLADLLSEKKTISFAGCFLQMYFFISLATTECILFGLMAYDRYAAICRPLLYSLIMSRTVYLKMAAGAFAAGLLNFMVNTSHVSSLSFCDSNVIHHFFCDSPPLFKLSCSDTILKESISSILAGVNIVGTLLVILSSYSYVLFSIFSMHSGEGRHRAFSTCASHLTAIILFYATCIYTYLRPSSSYSLNQDKVASVFYTVVIPMLNPLIYSLRSKEVKKALANVISRKRTSSFL
B2: Copine-8 (Homo sapiens), Q86YQ8 (parent)
chain: MDSRYNSTAGIGDLNQLSAAIPATRVEVSVSCRNLLDRDTFSKSDPICVLYVQGVGNKEWREFGRTEVIDNTLNPDFVRKFILDYFFEERENLRFDLYDVDSKSPNLSKHDFLGQVFCTLGEIVGSQGSRLEKPIVGIPGKKCGTIILTAEELNCCRDAVLMQFCANKLDKKDFFGKSDPFLVFYRSNEDGSFTICHKTEVVKNTLNPVWQAFKISVRALCNGDYDRTIKVEVYDWDRDGSHDFIGEFTTSYRELSRGQSQFNVYEVVNPKKKGKKKKYTNSGTVTLLSFLVETEVSFLDYIKGGTQINFTVAIDFTASNGNPAQPTSLHYMNPYQLNAYGMALKAVGEIVQDYDSDKMFPALGFGAKLPPDGRISHEFALNGNPQNPYCDGIEGVMEAYYRSLKSVQLYGPTNFAPVINHVARYASSVKDGSQYFVLLIVTDGVISDMAQTKESIVNASKLPMSIIIVGVGPAEFDAMVELDGDDVRVSSRGKYAERDIVQFVPFRDYIDRSGNHILSMARLAKDVLAEIPEQFLSYMRARGIKPSPAPPPYTPPTHVLQTQI
B3: Monocarboxylate transporter 2 (Homo sapiens), O60669 (parent)
chain: MPPMPSAPPVHPPPDGGWGWIVVGAAFISIGFSYAFPKAVTVFFKEIQQIFHTTYSEIAWISSIMLAVMYAGGPVSSVLVNKYGSRPVVIAGGLLCCLGMVLASFSSSVVQLYLTMGFITGLGLAFNLQPALTIIGKYFYRKRPMANGLAMAGSPVFLSSLAPFNQYLFNTFGWKGSFLILGSLLLNACVAGSLMRPLGPNQTTSKSKNKTGKTEDDSSPKKIKTKKSTWEKVNKYLDFSLFKHRGFLIYLSGNVIMFLGFFAPIIFLAPYAKDQGIDEYSAAFLLSVMAFVDMFARPSVGLIANSKYIRPRIQYFFSFAIMFNGVCHLLCPLAQDYTSLVLYAVFFGLGFGSVSSVLFETLMDLVGAPRFSSAVGLVTIVECGPVLLGPPLAGKLVDLTGEYKYMYMSCGAIVVAASVWLLIGNAINYRLLAKERKEENARQKTRESEPLSKSKHSEDVNVKVSNAQSVTSERETNI
B4: Ribosomal protein S6 kinase alpha-2 (Homo sapiens), Q15349 (parent)
chain: MDLSMKKFAVRRFFSVYLRRKSRSKSSSLSRLEEEGVVKEIDISHHVKEGFEKADPSQFELLKVLGQGSYGKVFLVRKVKGSDAGQLYAMKVLKKATLKVRDRVRSKMERDILAEVNHPFIVKLHYAFQTEGKLYLILDFLRGGDLFTRLSKEVMFTEEDVKFYLAELALALDHLHSLGIIYRDLKPENILLDEEGHIKITDFGLSKEAIDHDKRAYSFCGTIEYMAPEVVNRRGHTQSADWWSFGVLMFEMLTGSLPFQGKDRKETMALILKAKLGMPQFLSGEAQSLLRALFKRNPCNRLGAGIDGVEEIKRHPFFVTIDWNTLYRKEIKPPFKPAVGRPEDTFHFDPEFTARTPTDSPGVPPSANAHHLFRGFSFVASSLIQEPSQQDLHKVPVHPIVQQLHGNNIHFTDGYEIKEDIGVGSYSVCKRCVHKATDTEYAVKIIDKSKRDPSEEIEILLRYGQHPNIITLKDVYDDGKFVYLVMELMRGGELLDRILRQRYFSEREASDVLCTITKTMDYLHSQGVVHRDLKPSNILYRDESGSPESIRVCDFGFAKQLRAGNGLLMTPCYTANFVAPEVLKRQGYDAACDIWSLGILLYTMLAGFTPFANGPDDTPEEILARIGSGKYALSGGNWDSISDAAKDVVSKMLHVDPHQRLTAMQVLKHPWVVNREYLSPNQLSRQDVHLVKGAMAATYFALNRTPQAPRLEPVLSSNLAQRRGMKRLTSTRL
B5: Guanylate cyclase soluble subunit alpha-2 (Homo sapiens), P33402 (parent)
chain: MSRRKISSESFSSLGSDYLETSPEEEGECPLSRLCWNGSRSPPGPLEPSPAAAAAAAAPAPTPAASAAAAAATAGARRVQRRRRVNLDSLGESISRLTAPSPQTIQQTLKRTLQYYEHQVIGYRDAEKNFHNISNRCSYADHSNKEEIEDVSGILQCTANILGLKFEEIQKRFGEEFFNICFHENERVLRAVGGTLQDFFNGFDALLEHIRTSFGKQATLESPSFLCKELPEGTLMLHYFHPHHIVGFAMLGMIKAAGKKIYRLDVEVEQVANEKLCSDVSNPGNCSCLTFLIKECENTNIMKNLPQGTSQVPADLRISINTFCRAFPFHLMFDPSMSVLQLGEGLRKQLRCDTHKVLKFEDCFEIVSPKVNATFERVLLRLSTPFVIRTKPEASGSENKDKVMEVKGQMIHVPESNSILFLGSPCVDKLDELMGRGLHLSDIPIHDATRDVILVGEQAKAQDGLKKRMDKLKATLERTHQALEEEKKKTVDLLYSIFPGDVAQQLWQGQQVQARKFDDVTMLFSDIVGFTAICAQCTPMQVISMLNELYTRFDHQCGFLDIYKVETIGDAYCVAAGLHRKSLCHAKPIALMALKMMELSEEVLTPDGRPIQMRIGIHSGSVLAGVVGVRMPRYCLFGNNVTLASKFESGSHPRRINVSPTTYQLLKREESFTFIPRSREELPDNFPKEIPGICYFLEVRTGPKPPKPSLSSSRIKKVSYNIGTMFLRETSL

Variants of: B1
Settings: with scrib_human SCRIB
Target sequence in this assay (Q14160 whole entry): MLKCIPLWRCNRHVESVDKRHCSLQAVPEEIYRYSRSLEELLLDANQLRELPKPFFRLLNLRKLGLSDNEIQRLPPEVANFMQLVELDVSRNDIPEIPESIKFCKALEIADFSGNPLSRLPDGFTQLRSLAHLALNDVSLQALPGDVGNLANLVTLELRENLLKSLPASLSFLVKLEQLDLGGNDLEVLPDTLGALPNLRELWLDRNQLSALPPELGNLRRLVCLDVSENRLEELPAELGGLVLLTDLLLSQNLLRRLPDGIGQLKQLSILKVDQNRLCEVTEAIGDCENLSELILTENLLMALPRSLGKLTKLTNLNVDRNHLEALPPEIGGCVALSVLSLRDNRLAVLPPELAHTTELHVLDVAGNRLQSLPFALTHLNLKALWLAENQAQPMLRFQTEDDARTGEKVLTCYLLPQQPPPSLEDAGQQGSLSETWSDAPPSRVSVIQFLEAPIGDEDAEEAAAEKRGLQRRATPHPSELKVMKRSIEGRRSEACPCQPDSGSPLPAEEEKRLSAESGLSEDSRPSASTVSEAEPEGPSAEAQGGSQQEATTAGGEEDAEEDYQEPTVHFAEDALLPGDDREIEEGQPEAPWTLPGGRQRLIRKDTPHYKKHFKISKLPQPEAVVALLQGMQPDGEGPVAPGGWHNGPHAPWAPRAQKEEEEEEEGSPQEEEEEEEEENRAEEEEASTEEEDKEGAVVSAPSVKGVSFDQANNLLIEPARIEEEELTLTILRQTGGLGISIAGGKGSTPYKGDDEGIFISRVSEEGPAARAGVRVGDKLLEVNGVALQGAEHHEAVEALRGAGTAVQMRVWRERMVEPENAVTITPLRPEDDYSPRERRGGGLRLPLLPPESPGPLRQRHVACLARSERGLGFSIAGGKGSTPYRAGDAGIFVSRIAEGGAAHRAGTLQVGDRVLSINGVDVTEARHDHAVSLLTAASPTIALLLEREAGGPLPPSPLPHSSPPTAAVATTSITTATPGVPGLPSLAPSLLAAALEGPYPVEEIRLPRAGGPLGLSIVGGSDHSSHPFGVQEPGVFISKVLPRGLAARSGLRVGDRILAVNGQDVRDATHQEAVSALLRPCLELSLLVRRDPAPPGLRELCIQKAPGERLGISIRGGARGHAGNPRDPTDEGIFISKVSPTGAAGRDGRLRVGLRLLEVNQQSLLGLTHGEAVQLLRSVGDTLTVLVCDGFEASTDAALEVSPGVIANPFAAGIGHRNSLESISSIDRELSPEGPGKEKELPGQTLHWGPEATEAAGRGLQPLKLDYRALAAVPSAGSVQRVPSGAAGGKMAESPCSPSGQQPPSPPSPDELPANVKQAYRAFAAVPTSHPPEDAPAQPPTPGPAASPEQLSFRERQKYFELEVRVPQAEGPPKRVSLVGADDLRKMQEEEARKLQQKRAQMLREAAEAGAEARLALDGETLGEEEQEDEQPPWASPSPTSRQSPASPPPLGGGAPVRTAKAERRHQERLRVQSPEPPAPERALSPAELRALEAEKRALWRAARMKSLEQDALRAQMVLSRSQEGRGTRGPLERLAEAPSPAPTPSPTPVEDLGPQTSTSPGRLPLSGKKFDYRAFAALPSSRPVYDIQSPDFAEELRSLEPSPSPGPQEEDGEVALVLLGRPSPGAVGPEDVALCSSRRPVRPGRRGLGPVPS

| effect of a mutation on the interaction | Variant |
| --- | --- |
| causing an interaction | MTRKNYTSLTEFVLLGLADTLELQIILFLFFLVIYTLTVLGNLGMILLIRIDSQLHTPMYFFLANLSFVDVCNSTTITPKMLADLLSEKKTISFAGCFLQMYFFISLATTECILFGLMAYDRYAAICRPLLYSLIMSRTVYLKMAAGAFAAGLLNFMVNTSHVSSLSFCDSNVIHHFFCDSPPLFKLSCSDTILKESISSILAGVNIVGTLLVILSSYSYVLFSIFSMHSGEGRHRAFSTCASHLTAIILFYATCIYTYLRPSSSYSLNQDKVASVFYTVVIPMLNPLIYSLRSKEVKKALANVISRKRTESFL [S311E] |

Variants of: B2
Settings: with scrib_human SCRIB
Target sequence in this assay (Q14160 whole entry): as the sequence (Q14160 whole entry) above

| effect of a mutation on the interaction | Variant |
| --- | --- |
| causing an interaction | MDSRYNSTAGIGDLNQLSAAIPATRVEVSVSCRNLLDRDTFSKSDPICVLYVQGVGNKEWREFGRTEVIDNTLNPDFVRKFILDYFFEERENLRFDLYDVDSKSPNLSKHDFLGQVFCTLGEIVGSQGSRLEKPIVGIPGKKCGTIILTAEELNCCRDAVLMQFCANKLDKKDFFGKSDPFLVFYRSNEDGSFTICHKTEVVKNTLNPVWQAFKISVRALCNGDYDRTIKVEVYDWDRDGSHDFIGEFTTSYRELSRGQSQFNVYEVVNPKKKGKKKKYTNSGTVTLLSFLVETEVSFLDYIKGGTQINFTVAIDFTASNGNPAQPTSLHYMNPYQLNAYGMALKAVGEIVQDYDSDKMFPALGFGAKLPPDGRISHEFALNGNPQNPYCDGIEGVMEAYYRSLKSVQLYGPTNFAPVINHVARYASSVKDGSQYFVLLIVTDGVISDMAQTKESIVNASKLPMSIIIVGVGPAEFDAMVELDGDDVRVSSRGKYAERDIVQFVPFRDYIDRSGNHILSMARLAKDVLAEIPEQFLSYMRARGIKPSPAPPPYTPPEHVLQTQI [T557E] |

Variants of: B3
Settings: with scrib_human SCRIB
Target sequence in this assay (Q14160 whole entry): as the sequence (Q14160 whole entry) above

| effect of a mutation on the interaction | Variant |
| --- | --- |
| decreasing interaction strength | MPPMPSAPPVHPPPDGGWGWIVVGAAFISIGFSYAFPKAVTVFFKEIQQIFHTTYSEIAWISSIMLAVMYAGGPVSSVLVNKYGSRPVVIAGGLLCCLGMVLASFSSSVVQLYLTMGFITGLGLAFNLQPALTIIGKYFYRKRPMANGLAMAGSPVFLSSLAPFNQYLFNTFGWKGSFLILGSLLLNACVAGSLMRPLGPNQTTSKSKNKTGKTEDDSSPKKIKTKKSTWEKVNKYLDFSLFKHRGFLIYLSGNVIMFLGFFAPIIFLAPYAKDQGIDEYSAAFLLSVMAFVDMFARPSVGLIANSKYIRPRIQYFFSFAIMFNGVCHLLCPLAQDYTSLVLYAVFFGLGFGSVSSVLFETLMDLVGAPRFSSAVGLVTIVECGPVLLGPPLAGKLVDLTGEYKYMYMSCGAIVVAASVWLLIGNAINYRLLAKERKEENARQKTRESEPLSKSKHSEDVNVKVSNAQSVTEERETNI [S472E] |

Variants of: B4
Settings: with scrib_human SCRIB
Target sequence in this assay (Q14160 whole entry): as the sequence (Q14160 whole entry) above

| effect of a mutation on the interaction | Variant |
| --- | --- |
| with no effect | S730A |

Variants of: B4
Settings: with dlg1_human DLG1, Q12959
Chain of dlg1_human DLG1, Q12959 (Q12959 whole entry, looked up): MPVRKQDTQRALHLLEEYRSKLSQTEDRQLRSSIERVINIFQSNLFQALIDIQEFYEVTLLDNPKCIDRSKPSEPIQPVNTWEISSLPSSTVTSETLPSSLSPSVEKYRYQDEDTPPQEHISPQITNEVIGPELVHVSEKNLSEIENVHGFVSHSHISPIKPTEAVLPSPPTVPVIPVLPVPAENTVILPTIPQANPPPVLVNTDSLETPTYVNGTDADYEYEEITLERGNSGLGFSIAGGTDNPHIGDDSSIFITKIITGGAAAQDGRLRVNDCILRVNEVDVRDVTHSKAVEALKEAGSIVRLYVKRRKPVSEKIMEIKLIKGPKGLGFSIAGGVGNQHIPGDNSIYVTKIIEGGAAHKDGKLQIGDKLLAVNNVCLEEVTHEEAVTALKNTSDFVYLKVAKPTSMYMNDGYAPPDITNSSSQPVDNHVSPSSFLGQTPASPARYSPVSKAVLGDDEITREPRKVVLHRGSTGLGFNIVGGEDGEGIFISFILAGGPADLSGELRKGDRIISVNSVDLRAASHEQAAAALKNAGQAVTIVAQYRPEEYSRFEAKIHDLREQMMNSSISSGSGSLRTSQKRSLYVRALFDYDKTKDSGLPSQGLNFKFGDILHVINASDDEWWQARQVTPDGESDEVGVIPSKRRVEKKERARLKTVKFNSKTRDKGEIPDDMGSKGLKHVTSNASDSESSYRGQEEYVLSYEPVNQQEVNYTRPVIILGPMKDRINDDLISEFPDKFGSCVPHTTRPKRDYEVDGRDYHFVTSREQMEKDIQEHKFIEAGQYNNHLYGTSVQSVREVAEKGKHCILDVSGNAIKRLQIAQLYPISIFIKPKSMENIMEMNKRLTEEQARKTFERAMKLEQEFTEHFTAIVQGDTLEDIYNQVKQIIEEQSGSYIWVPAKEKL

| effect of a mutation on the interaction | Variant |
| --- | --- |
| increasing interaction strength | S730E |

Variants of: B4
Settings: with scrib_human SCRIB
Remark: another data set of the same source
Target sequence in this assay (Q14160 whole entry): as the sequence (Q14160 whole entry) above

| effect of a mutation on the interaction | Variant |
| --- | --- |
| increasing interaction strength | S730E |

Variants of: B4
Settings: with shan1_human SHANK1, Q9Y566
Chain of shan1_human SHANK1, Q9Y566 (Q9Y566 whole entry): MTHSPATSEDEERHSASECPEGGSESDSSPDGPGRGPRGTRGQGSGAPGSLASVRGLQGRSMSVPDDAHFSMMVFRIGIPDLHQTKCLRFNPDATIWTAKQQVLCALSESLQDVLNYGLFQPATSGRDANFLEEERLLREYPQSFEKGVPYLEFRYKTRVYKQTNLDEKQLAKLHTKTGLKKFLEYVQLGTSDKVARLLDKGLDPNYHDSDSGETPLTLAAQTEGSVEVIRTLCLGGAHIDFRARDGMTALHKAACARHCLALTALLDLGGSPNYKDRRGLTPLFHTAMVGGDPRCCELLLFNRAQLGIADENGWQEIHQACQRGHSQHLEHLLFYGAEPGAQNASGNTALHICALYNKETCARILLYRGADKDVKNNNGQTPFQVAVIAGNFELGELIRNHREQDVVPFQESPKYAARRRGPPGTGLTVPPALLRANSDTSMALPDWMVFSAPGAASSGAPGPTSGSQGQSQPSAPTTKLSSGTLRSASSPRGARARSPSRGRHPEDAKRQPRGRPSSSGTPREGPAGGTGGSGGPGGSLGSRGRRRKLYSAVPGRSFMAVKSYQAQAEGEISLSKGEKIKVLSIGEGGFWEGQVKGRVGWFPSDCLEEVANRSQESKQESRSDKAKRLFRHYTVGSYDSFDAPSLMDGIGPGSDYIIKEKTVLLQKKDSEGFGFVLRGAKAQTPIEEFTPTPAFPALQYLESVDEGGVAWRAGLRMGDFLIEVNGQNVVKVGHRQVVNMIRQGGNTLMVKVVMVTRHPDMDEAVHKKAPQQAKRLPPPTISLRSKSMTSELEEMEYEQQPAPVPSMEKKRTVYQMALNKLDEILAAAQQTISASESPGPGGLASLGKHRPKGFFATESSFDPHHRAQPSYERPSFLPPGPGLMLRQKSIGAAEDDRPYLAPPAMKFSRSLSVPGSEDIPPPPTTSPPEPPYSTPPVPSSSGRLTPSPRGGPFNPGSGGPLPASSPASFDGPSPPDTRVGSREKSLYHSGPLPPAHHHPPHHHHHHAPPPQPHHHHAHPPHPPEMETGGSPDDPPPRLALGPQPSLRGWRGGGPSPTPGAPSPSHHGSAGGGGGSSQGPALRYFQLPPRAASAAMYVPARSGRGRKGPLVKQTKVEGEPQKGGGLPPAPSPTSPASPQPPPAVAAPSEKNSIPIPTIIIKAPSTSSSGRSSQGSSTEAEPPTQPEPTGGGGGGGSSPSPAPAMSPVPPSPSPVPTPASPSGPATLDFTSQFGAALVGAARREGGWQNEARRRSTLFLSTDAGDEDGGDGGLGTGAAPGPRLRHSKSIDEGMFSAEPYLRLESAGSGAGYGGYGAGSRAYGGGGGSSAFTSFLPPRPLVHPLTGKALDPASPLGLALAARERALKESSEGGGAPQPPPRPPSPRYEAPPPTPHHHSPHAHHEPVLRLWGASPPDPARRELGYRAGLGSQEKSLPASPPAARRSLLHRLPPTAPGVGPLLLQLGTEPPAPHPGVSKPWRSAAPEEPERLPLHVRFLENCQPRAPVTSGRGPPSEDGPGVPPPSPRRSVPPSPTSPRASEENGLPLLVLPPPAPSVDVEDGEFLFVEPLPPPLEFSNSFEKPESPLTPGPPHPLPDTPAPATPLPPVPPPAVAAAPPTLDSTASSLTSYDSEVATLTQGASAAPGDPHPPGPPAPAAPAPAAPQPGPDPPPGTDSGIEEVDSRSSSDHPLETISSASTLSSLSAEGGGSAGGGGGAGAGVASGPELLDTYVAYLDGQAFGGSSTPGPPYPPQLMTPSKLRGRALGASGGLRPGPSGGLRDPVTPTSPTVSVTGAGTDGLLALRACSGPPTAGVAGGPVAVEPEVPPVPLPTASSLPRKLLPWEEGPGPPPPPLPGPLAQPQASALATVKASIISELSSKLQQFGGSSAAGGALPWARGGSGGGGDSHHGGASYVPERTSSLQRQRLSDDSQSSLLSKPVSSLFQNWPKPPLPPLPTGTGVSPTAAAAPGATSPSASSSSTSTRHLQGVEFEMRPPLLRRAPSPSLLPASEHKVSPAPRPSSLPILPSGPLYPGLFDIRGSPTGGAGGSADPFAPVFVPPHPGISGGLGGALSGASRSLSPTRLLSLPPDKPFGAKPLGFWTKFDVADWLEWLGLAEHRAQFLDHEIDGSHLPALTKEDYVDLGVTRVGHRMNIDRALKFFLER

| effect of a mutation on the interaction | Variant |
| --- | --- |
| decreasing interaction strength | S730E |

Variants of: B4
Settings: with scrib_human SCRIB
Remark: another data set of the same source
Target sequence in this assay (Q14160 whole entry): as the sequence (Q14160 whole entry) above

| effect of a mutation on the interaction | Variant |
| --- | --- |
| causing an interaction | S730E |

Variants of: B5
Settings: with scrib_human SCRIB

| effect of a mutation on the interaction | Variant |
| --- | --- |
| increasing interaction strength | S731E |
